Experimental data taken from publication doi:10.1101/2023.03.30.534840.
Values joined by “and” are separate entries in the source; they are usually repeats but may differ in a detail not shown here. Equal values may be shown once.

Tests used:
[1] = target: MeSufBC complex (His-MeSufB with MeSufC-HA) (Monocercomonoides exilis); experiment: mass photometry
[2] = target: MeSufBC complex (His-MeSufB with MeSufC-HA) (Monocercomonoides exilis); experiment: SEC
[3] = target: MeSufBC complex (His-MeSufB with MeSufC-HA) (Monocercomonoides exilis); experiment: SEC; remark: listed apart in the source
[4] = target: MeSufBC complex (His-MeSufB with MeSufC-HA) (Monocercomonoides exilis); experiment: mass photometry; remark: listed apart in the source
[5] = target: His-MeSufB (Monocercomonoides exilis); experiment: mass photometry
[6] = target: T25-MeSufB (Monocercomonoides exilis); experiment: two-hybrid
[7] = target: His-MeSufC (expressed alone in E. coli) (Monocercomonoides exilis); experiment: SEC
[8] = target: T25-MeSufC (Monocercomonoides exilis); experiment: two-hybrid

MeSufBC complex (His-MeSufB with MeSufC-HA)
stoichiometry N (MeSufBC units) [1]: 2
stoichiometry N (MeSufBC units) [2]: 2 and 4
stoichiometry N (MeSufBC units) [3]: 4
stoichiometry N (MeSufBC units) [4]: 2

MeSufC-HA (enzyme)
stoichiometry N (MeSufC per MeSufB) [5]: 1

MeSufC-T18 (natural protein)
β-galactosidase activity (BACTH) [6]: 670 Miller units

His-MeSufC (expressed alone in E. coli) (enzyme)
stoichiometry N [7]: 2

B1: EcSufC-T18 (natural protein)
chain: MLSIKDLHVSVEDKAILRGLSLDVHPGEVHAIMGPNGSGKSTLSATLAGREDYEVTGGTVEFKGKDLLALSPEDRAGEGIFMAFQYPVEIPGVSNQFFLQTALNAVRSYRGQETLDRFDFQDLMEEKIALLKMPEDLLTRSVNVGFSGGEKKRNDILQMAVLEPELCILDESDSGLDIDALKVVADGVNSLRDGKRSFIIVTHYQRILDYIKPDYVHVLYQGRIVKSGDFTLVKQLEEQGYGWLTEQQ
β-galactosidase activity (BACTH) [6]: 1040 Miller units

B2: EcSufB-T18 (natural protein)
chain: MSRNTEATDDVKTWTGGPLNYKEGFFTQLATDELAKGINEEVVRAISAKRNEPEWMLEFRLNAYRAWLEMEEPHWLKAHYDKLNYQDYSYYSAPSCGNCDDTCASEPGAVQQTGANAFLSKEVEAAFEQLGVPVREGKEVAVDAIFDSVSVATTYREKLAEQGIIFCSFGEAIHDHPELVRKYLGTVVPGNDNFFAALNAAVASDGTFIYVPKGVRCPMELSTYFRINAEKTGQFERTILVADEDSYVSYIEGCSAPVRDSYQLHAAVVEVIIHKNAEVKYSTVQNWFPGDNNTGGILNFVTKRALCEGENSKMSWTQSETGSAITWKYPSCILRGDNSIGEFYSVALTSGHQQADTGTKMIHIGKNTKSTIISKGISAGHSQNSYRGLVKIMPTATNARNFTQCDSMLIGANCGAHTFPYVECRNNSAQLEHEATTSRIGEDQLFYCLQRGISEEDAISMIVNGFCKDVFSELPLEFAVEAQKLLAISLEHSVG
β-galactosidase activity (BACTH) [8]: 556 Miller units
